Laboratory results taken from publication PMC10279719.
pKd: −log10 of the molar value. Values belong to the substance of their own block, whether it stands above or below them.

Columns and labels:
[1] = molecular target: PEAK3 tandem-pS69 peptide (residues 54-74) (human); assay: ITC; binary; peptide in the cell (20 µM, or 16.8 µM after a buffer titration), protein in the syringe; 25 °C, 20 mM HEPES pH 7.4, 150 mM NaCl, 1 mM TCEP; single binding site model
[2] = molecular target: PEAK3^tandem-pS69 peptide (residues 54–74, phosphorylated at S69) (human); assay: ITC; binary; peptide (20 μM) in the cell, protein in the syringe (14-3-3ɣ 200 μM; CrkII^NSH3 140 or 400 μM); 25 °C, 20 mM HEPES pH 7.4, 150 mM NaCl, 1 mM TCEP; single site model
[3] = molecular target: PEAK3tandem-pS69 peptide (residues 54-74) (human); assay: ITC; 25 °C, peptide (20 µM) in the cell, protein in the syringe, sequential titrations; 20 mM HEPES pH 7.4, 150 mM NaCl, 1 mM TCEP; single binding site model
[4] = molecular target: PEAK3 SH2-pY peptide 23-29 (Homo sapiens) (UniProt Q6ZS72); assay: ITC; details: cited from earlier work
[5] = molecular target: PEAK3 tandem-pS69 : 14-3-3γ (K50E) complex (human); assay: ITC; ternary; CrkII NSH3 in the syringe titrated into the peptide:14-3-3γ complex left in the cell (16.8 µM) after the first titration; 25 °C, 20 mM HEPES pH 7.4, 150 mM NaCl, 1 mM TCEP; single binding site model
[6] = molecular target: PEAK3^(tandem, 54–74)pS69:14-3-3γ complex (human); assay: ITC; ternary, sequential; CrkII^NSH3 (400 μM, syringe) titrated into the peptide (16.8 µM) left in the cell after a first titration with 14-3-3ɣ; 25 °C, 20 mM HEPES pH 7.4, 150 mM NaCl, 1 mM TCEP
[7] = molecular target: full length PEAK3 (PEAK3^FL, residues 1-473), from insect cells, phosphorylated by Src (human) (UniProt Q6ZS72); assay: SPR; biotinylated PEAK proteins (with or without Src phosphorylation) captured with a biotin CAPture kit; Grb2 FL, Grb2 SH2, CrkII SH2, CrkII FL monomer or dimer as analytes; Biacore 8K+, 20 °C, HBS-TP with NaCl raised to 500 mM; 1 M NaCl regeneration; steady state
[8] = molecular target: PEAK2^IDR1 (residues 802-1406), from insect cells, phosphorylated by Src (human) (UniProt Q86YV5); assay: as above
[9] = molecular target: PEAK1^IDR1 (residues 1082-1746), from insect cells, phosphorylated by Src (human) (UniProt Q9H792); assay: as above
14-3-3η 1-246 = 14-3-3η 1-246 (UniProt Q04917); assay: SPR, immobilized 14-3-3η
14-3-3γ 1-247 = 14-3-3γ 1-247 (UniProt P61981); assay: SPR, immobilized 14-3-3γ; details: reference: non-phosphorylated PEAK1tandem peptide; sites T1165
[10] = molecular target: 14-3-3σ (Methods: 14-3-3ς, with an accession that is 14-3-3ζ) 1-245; assay: SPR, immobilized 14-3-3σ
14-3-3ε 1-255 = 14-3-3ε 1-255 (UniProt P62258); assay: SPR, immobilized 14-3-3ε
[11] = molecular target: 14-3-3ε (residues 1-255) (human) (UniProt P62258); assay: SPR; 14-3-3 isoforms amine coupled to a CM5 chip, tandem peptides as analytes (10 µM-10 nM for PEAK3 tandem-pS69, 20 µM-20 nM for all others); Biacore S200, 20 °C, HBS-TP; steady state, 1:1 model
[12] = molecular target: 14-3-3γ (residues 1-247) (human); assay: as above
[13] = molecular target: 14-3-3η (residues 1-246) (human); assay: as above
14-3-3γ (human) = assay: SPR; Biacore S200; 14-3-3 isoforms amine coupled to CM5, peptides injected (10 µM–10 nM for PEAK3^tandem-pS69, 20 µM–20 nM for other peptides); 20 °C, HBS-TP; steady-state 1:1 fit
[14] = molecular target: full length CrkII, dimer (CrkII^FL dimer) (human) (UniProt P46108); assay: SEC; single purified proteins on Superdex 200 (purification and re-runs), 20 mM HEPES pH 7.5–8.5, 150 mM NaCl, 1 mM TCEP; oligomeric state
[15] = molecular target: PEAK2^IDR1 (human PEAK2 residues 802–1406) (human) (UniProt Q86YV5); assay: SEC-MALS; purified PEAK2^IDR1:CrkII^FL dimer complex (170 μg), Superdex 200 Increase 10/300, 20 mM HEPES pH 7.5, 150 mM NaCl, 1 mM TCEP
[16] = molecular target: PEAK1^IDR1 (residues 1082-1746), from insect cells (human) (UniProt Q9H792); assay: SPR; biotinylated PEAK proteins (with or without Src phosphorylation) captured with a biotin CAPture kit; Grb2 FL, Grb2 SH2, CrkII SH2, CrkII FL monomer or dimer as analytes; Biacore 8K+, 20 °C, HBS-TP with NaCl raised to 500 mM; 1 M NaCl regeneration; steady state
[17] = reference: non-phosphorylated PEAK1tandem peptide, sites T1165
[18] = reference: non-phosphorylated PEAK3tandem peptide, sites S69

14-3-3ε (residues 1-255) (human), sequence (P62258 whole entry, the tested form may be a part, canonical isoform): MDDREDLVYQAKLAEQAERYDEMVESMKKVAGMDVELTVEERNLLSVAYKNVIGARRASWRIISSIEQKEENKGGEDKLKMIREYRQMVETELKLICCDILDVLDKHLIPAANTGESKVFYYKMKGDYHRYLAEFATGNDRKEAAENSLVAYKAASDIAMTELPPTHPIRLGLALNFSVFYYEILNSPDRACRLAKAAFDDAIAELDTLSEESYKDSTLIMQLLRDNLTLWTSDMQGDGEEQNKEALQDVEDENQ
PEAK1^IDR1 (residues 1082-1746), from insect cells, phosphorylated by Src (human), sequence (Q9H792 1082-1746): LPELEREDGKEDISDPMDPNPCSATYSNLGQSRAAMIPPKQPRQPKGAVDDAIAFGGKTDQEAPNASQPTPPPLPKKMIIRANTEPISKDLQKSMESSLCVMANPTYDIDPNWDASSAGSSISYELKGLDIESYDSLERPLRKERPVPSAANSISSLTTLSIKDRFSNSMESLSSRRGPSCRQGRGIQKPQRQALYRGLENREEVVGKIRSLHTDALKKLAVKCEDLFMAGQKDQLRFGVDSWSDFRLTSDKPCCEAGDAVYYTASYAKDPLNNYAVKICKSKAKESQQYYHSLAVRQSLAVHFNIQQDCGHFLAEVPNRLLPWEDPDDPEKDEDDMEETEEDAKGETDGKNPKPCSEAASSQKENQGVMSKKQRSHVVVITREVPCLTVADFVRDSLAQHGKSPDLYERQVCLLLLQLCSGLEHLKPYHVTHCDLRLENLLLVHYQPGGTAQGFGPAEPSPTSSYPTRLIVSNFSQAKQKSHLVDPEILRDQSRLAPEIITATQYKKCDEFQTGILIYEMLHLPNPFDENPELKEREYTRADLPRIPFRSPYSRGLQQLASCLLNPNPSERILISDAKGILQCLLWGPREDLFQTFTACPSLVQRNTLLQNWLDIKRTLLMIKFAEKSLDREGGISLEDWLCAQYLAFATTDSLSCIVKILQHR
PEAK2 tandem peptide, non-phosphorylated (residues 812-831), sequence (peptide): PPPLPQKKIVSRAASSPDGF
full length PEAK3 (PEAK3^FL, residues 1-473), from insect cells, phosphorylated by Src (human), sequence (Q6ZS72 whole entry, the tested form may be a part): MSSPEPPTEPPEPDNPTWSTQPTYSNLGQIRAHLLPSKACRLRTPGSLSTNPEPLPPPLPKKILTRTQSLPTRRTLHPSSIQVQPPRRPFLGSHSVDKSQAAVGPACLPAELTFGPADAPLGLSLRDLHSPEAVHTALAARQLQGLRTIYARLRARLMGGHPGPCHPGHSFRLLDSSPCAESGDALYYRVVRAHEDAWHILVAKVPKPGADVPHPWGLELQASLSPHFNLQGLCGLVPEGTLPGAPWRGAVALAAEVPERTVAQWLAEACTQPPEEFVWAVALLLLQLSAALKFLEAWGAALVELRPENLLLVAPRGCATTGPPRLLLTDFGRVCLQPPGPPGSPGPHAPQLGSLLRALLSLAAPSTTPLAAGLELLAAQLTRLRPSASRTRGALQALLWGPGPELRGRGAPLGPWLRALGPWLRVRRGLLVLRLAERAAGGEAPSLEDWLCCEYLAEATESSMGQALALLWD
PEAK3 SH2-pY peptide 23-29 (Homo sapiens), sequence (Q6ZS72 whole entry, looked up, tested part not stated): as the sequence (Q6ZS72 whole entry, the tested form may be a part) above
PEAK1^IDR1 (residues 1082-1746), from insect cells (human), sequence (Q9H792 1082-1746): as the sequence (Q9H792 1082-1746) above
PEAK2^IDR1 (residues 802-1406), from insect cells, phosphorylated by Src (human), sequence (Q86YV5 802-1406): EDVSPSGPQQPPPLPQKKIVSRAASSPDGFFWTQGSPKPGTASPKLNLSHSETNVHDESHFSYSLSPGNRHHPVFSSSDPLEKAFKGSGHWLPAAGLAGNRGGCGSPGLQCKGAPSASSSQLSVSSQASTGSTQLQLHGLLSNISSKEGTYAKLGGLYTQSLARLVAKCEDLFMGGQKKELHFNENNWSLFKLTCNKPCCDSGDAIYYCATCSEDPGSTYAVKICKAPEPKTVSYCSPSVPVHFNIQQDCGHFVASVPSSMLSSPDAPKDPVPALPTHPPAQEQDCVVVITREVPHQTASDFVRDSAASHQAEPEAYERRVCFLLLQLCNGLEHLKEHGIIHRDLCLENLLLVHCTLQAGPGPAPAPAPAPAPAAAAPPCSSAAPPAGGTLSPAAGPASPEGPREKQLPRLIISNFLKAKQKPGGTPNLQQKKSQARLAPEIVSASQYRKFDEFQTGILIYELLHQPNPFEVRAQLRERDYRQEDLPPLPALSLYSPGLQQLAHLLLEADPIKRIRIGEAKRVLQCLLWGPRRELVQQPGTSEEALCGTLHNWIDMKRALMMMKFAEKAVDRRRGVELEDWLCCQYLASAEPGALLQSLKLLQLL
PEAK2^IDR1 (human PEAK2 residues 802–1406) (human), sequence (Q86YV5 802-1406): as above

Substance: 14-3-3γ (natural protein)
- pKd [2]: 6.89
- pKd [3]: 6.90

Substance: CrkII (from UniProt P46108)
- pKd [4]: 5.11

Substance: CrkII NSH3 domain (CrkII^NSH3, residues 134–191) (from UniProt P46108-1 134-191) (domain or fragment)
- pKd [6]: 5.44

Substance: CrkII SH2 domain (CrkII^SH2, residues 6-120) (from UniProt P46108-1 6-120) (domain or fragment)
- pKd [7]: 4.32
- pKd [8]: 4.68
- pKd [9]: 4.90

Substance: PEAK1 1152-1171 (from UniProt Q9H792) PEAK1tandem-pT1165 peptide
- binding against the reference (14-3-3η 1-246; [17]): stronger
- binding against the reference (14-3-3γ 1-247): stronger
- binding against the reference [10, 17]: stronger
- binding against the reference (14-3-3ε 1-255; [17]): stronger

Substance: PEAK1 tandem-pT1165 peptide (residues 1152-1171)
- pKd [11]: 5.27

Substance: PEAK2 tandem peptide, non-phosphorylated (residues 812-831)
- pKd [12]: < 4.00
- pKd [13]: < 4.00
- pKd [11]: < 4.00

Substance: PEAK3 tandem peptide, non-phosphorylated (residues 54-74)
- pKd [11]: < 4.00

Substance: PEAK3 tandem-pS69 peptide (residues 54-74)
- pKd [11]: 6.11

Substance: full length CrkII, dimer (CrkII^FL dimer) (from UniProt P46108-1 1-304) (natural protein)
- percent of the isolated protein that is dimer [14]: 10%
- stoichiometry N (CrkII chains per PEAK2 chain (2:2)) [15]: 1

Substance: full length Grb2 (Grb2^FL, residues 1-217) (from UniProt P62993-1 1-217) (natural protein)
- pKd [16]: < 4.30
- pKd [9]: 5.37

Other lines, results leading:

- pKd [1]: 5.22
- stoichiometry N [1]: 0.726
Substance: 14-3-3γ (gamma) (K50E) (natural protein)

- pKd [5]: 5.49
- stoichiometry N [5]: 0.69
Substance: CrkII N-terminal SH3 domain (CrkII^NSH3, residues 134-191) (from UniProt P46108-1 134-191) (domain or fragment)

- pKd [11]: < 4.00
Substance: PEAK1 tandem peptide, non-phosphorylated (residues 1152-1171)

- pKd [12]: 5.87
- pKd [13]: 5.71
- pKd [11]: 5.13
Substance: PEAK2 tandem-pS826 peptide (residues 812-831)

- binding against the reference (14-3-3η 1-246; [18]): stronger
- binding against the reference [10, 18]: stronger
- binding against the reference (14-3-3ε 1-255; [18]): stronger
Substance: PEAK3 54-74 (from UniProt Q6ZS72) PEAK3tandem-pS69 peptide

- pKd (14-3-3γ (human)): < 5.00
Substance: PEAK3^tandem peptide, non-phosphorylated (residues 54–74; Ac-…-NH2)
